Patent US20050207995A1

Columns and labels:
[1] = target: human salivary α-amylase (Type IX A, Sigma Chemical Co.) (human); assay: ELISA: amylase (10.0 µg/ml) coated, 65 kDa protein added, detected with rat anti-65 kDa serum
[2] = target: human whole saliva (human); assay: ELISA: 1:2 dilution of whole saliva coated, 65 kDa protein added, detected with rat anti-65 kDa serum

human salivary α-amylase (Type IX A, Sigma Chemical Co.) (human), sequence (P0DUB6 16-511): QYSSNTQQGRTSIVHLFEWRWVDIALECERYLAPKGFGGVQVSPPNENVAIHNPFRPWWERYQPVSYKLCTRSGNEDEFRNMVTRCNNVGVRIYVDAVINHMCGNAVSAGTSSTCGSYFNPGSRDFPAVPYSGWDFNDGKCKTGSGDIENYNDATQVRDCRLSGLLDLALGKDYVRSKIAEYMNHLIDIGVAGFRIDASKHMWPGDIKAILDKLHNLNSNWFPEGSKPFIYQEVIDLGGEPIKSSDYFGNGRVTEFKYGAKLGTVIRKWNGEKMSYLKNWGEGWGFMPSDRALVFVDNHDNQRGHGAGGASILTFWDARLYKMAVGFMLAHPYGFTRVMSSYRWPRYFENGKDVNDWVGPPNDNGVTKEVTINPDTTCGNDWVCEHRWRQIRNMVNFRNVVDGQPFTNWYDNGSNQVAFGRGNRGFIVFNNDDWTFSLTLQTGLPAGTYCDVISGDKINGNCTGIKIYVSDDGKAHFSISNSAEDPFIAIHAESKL

Q: What does the source list for “purified 65 kDa fimbrial protein of S. mutans A32-2 (serotype c) (enzyme)”?
A: O.D. (ELISA absorbance at 490 nm) [1]: 0.25 O.D.; O.D. (ELISA absorbance at 490 nm) [2]: 0.26 O.D.
